The values that follow come from the RNAGym collection of RNA variant scans (doi:10.7554/elife.80360).

The chains are these.
B1: HDV Ribozyme (parent)
chain: GGCCGGCAUGGUCCCAGCCUCCUCGCUGGCGCCGGCUGGGCAACAUUCCGAGGGGACCGUCCCCUCGGUAAUGGCGAAUGGGACCCA

The data set covers variants of B1. Nature of the data set: self-cleavage, relative activity (ratio to wild type); higher = more cleavage; co-transcriptional.
With GGCCGGCAUGGUCCCAGCCUCGUCGCUGGCGCCGGCUGGGCAACAUUCCGAGGGGACCGUCCUCUCGGUAAUGGCGAAUGGGACCCA [C22G C63U], the self-cleavage was found to be 0.147. Regarding GGCCGGCAUGGUCCCAGCCUCCUCGUUGGCGCCGGCUUGGCAACAUUCCGAGGGGACCGUCCCCUCGGUAAUGGCGAAUGGGACCCA [C26U G38U], the self-cleavage is 0.616. In the case of GGCCGGCAUGGUCCCAGCCUGCUCGCUGGCGCCGGCUGGGCAACAUUCCGAGGGGACCGGCCCCUCGGUAAUGGCGAAUGGGACCCA [C21G U60G] it was 0; in that of GGCCGGCAUGGUCCCAGCCUCCUCGCUGGCGCCGGCUGGGCAACAUUCCGAGGGGACCGUCGCCUCGGUAAUGGCGAAUGCGACCCA [C62G G81C], 0.208. To GGCCGGCAUGGUCCCAGCCUCCUCGCUGGCGCCGGCUGGGCAACAUUCCGAGGGGACCGUGCCCUCGGUAAUGGCGAAUGGGACCGA [C61G C86G] belongs 0.941; to GGCCUGCAUGGUCCCAGCCUCCUCGCUGGCGCCGGCUGGGCAACAUUCCGAGGGGACCGUCCCCUCGGUAUUGGCGAAUGGGACCCA [G5U A71U], 0.185. In the case of GGCCGGCAUGGUCCCAUCCUCCUCGCUGGCGCCGGCUGGGCAACAUUCCGAGGGGACCGUCCCCUCGGUAGUGGCGAAUGGGACCCA [G17U A71G] it was 0.323. For GACCGGCAUGGUGCCAGCCUCCUCGCUGGCGCCGGCUGGGCAACAUUCCGAGGGGACCGUCCCCUCGGUAAUGGCGAAUGGGACCCA [G2A C13G], the self-cleavage is 0.0282. In the case of AGCCGGCAUGGUCCCAGCCUCCUCGCUGGCGCCGGCCGGGCAACAUUCCGAGGGGACCGUCCCCUCGGUAAUGGCGAAUGGGACCCA [G1A U37C] it was 0.217; in that of GGCCGGCAUGAUCCCAGCCUCCUCGCUGGCGCCGGCUGGGCAACAUUCCGAGGGGACCGACCCCUCGGUAAUGGCGAAUGGGACCCA [G11A U60A], 0.356. To GCCCGGCAUGGUCCCAGCCUCCUCGCUGGCGCCGGCUGGGCAACAUUCCGAGGGGACCGUCCCCGCGGUAAUGGCGAAUGGGACCCA [G2C U65G] belongs 0.0264.

For GGCCGGCAAGGUCCCAGCCUCCUCGCUGGCGCCGGCUGGGCAACAUUCAGAGGGGACCGUCCCCUCGGUAAUGGCGAAUGGGACCCA [U9A C49A], the self-cleavage is 0.554. As for GGCCGGCAUGCUCCCAGCCUCCUCGCUGGCGCCGGCUGGGCACCAUUCCGAGGGGACCGUCCCCUCGGUAAUGGCGAAUGGGACCCA [G11C A43C], the self-cleavage turned out to be 0. To GGCCGGCAUGGUCCCAGCCUCCUCGCUGGCGCCGGCUGGGCAACAUUCCGAGGGGGCCGUCCCCUCGGUAAUGGCUAAUGGGACCCA [A56G G76U] belongs 1.22; to GGCCGGCAUGGUCCCAGCCUACUCGCUGACGCCGGCUGGGCAACAUUCCGAGGGGACCGUCCCCUCGGUAAUGGCGAAUGGGACCCA [C21A G29A], 0.0875; to GGCCGGCAUGGUCCCAGCCUCCUCGCUGGCGCCGGCUGGACAACAUUCCGAGGGGACCGUCCCCUCGGUAGUGGCGAAUGGGACCCA [G40A A71G], 0.748. To GGCCGGCAUGGUCCCAGCCUCCUCGCUGGCGCCGGUGGGGCAACAUUCCGAGGGGACCGUCCCCUCGGUAAUGGCGAAUGGGACCCA [C36U U37G] belongs 0.166; to GGCCGGCAUGGUCCCAGCCUCCUCGCUGGCGCCGGCUGGGCAACAUUCCGAGGGGACCGUCCCCUCGGUAAUGGCGAAUAGGAGCCA [G80A C84G], 0.161. In the case of GGCCGGCAUGGUCCCAGCCUCCUCGCUGGCGCCGGCUGGGCAACAUUCCGCGGGGACCGUCCCCUCGGUAAUGGUGAAUGGGACCCA [A51C C75U] it was 0.141; in that of GGCCGGCAUGGUCCCAGCCUGCUCGCUGGCGCCGGCUGGGCAACAUUCCGAGGGGACCGUCCCCUCGGUAAUGGCGAAUGGUACCCA [C21G G82U], 0.106. On to GGCCGGCAUGGUCCCAGCCUCCUCGCUGGCGCCGGCUGGGCAACAUUCCGAGGGGACCGUACCCUCGCUAAUGGCGAAUGGGACCCA [C61A G68C], for which the self-cleavage was 0.873. To GGCCGGCAUGGUCCCAGCCUCCUCGCAGGCGCCGGCUGGGCAACAUUCCGAGGGGACCGUCCCCUCGGUAAUAGCGAAUGGGACCCA [U27A G73A] belongs 0.391; to GGCCUACAUGGUCCCAGCCUCCUCGCUGGCGCCGGCUGGGCAACAUUCCGAGGGGACCGUCCCCUCGGUAAUGGCGAAUGGGACCCA [G5U G6A], 0.208; to GGCCGGCAUGGUCCCAGCCUCCUCGCUGGCGCCGGGUGGGCAACAUUCCGAAGGGACCGUCCCCUCGGUAAUGGCGAAUGGGACCCA [C36G G52A], 0.271. In the case of GGCCGGCAUGGUCCCAGCCUCCUCGCCGGCGCCGGCUGGGCAACGUUCCGAGGGGACCGUCCCCUCGGUAAUGGCGAAUGGGACCCA [U27C A45G], the self-cleavage worked out at 0.511. In the case of GGCCGGCAUGGUCCCAGCCUCCUCGCUGGCGCCGACUGGGCAUCAUUCCGAGGGGACCGUCCCCUCGGUAAUGGCGAAUGGGACCCA [G35A A43U] it was 0.108; in that of GGCCGGCAUGGUCCCAGCCUCCUCGCUGGCGCCGUCUGGGCAACAUCCCGAGGGGACCGUCCCCUCGGUAAUGGCGAAUGGGACCCA [G35U U47C], 0.189; in that of GGCCGGCAUGGUCCCAGCCUCCUCGCUGGCGCCGGGUGGGCAACAUCCCGAGGGGACCGUCCCCUCGGUAAUGGCGAAUGGGACCCA [C36G U47C], 0.128. To GGCCGGCAUGGUCCCAGCCUCCUCGCUGGCGCCGGCUGGGCAACAUUCCGAGGGGACCGUCCCCUCGGUAAUGGCGACUGGGUCCCA [A78C A83U] belongs 0.166; to GGCCGGCAUGGUCCCAGCCUCCUCACUGGCGCCGGCUGGGCAACAUUCCGAGGGGACCGUCCCCUCGGUAAUGGCGAAUGGGUCCCA [G25A A83U], 0.0678; to GGCCGGCAUGGUCCCAGCCUCCUCGCUGGCGCCGGUUGGGCAACAUUCCGAGGGGACCGUCCCCUCGGCAAUGGCGAAUGGGACCCA [C36U U69C], 0.801. To GGCCGGCCUGGUCCCAGCCUCCUCGCUGGCGCCGGCUGGGCAACAUUCCGAGGGGACCGUCCCCUCGGUAAUGGCGAAUGGGACUCA [A8C C85U] belongs 0.886.
